In patent US20140135474A1 (PROTELICA, published 2014):
Residue numbers refer to the chain shown, from its start.

T1: VEGF (UniProt P15692-9 27-147, limits assumed)
T1 construct: Only the selection names the 121 isoform; also called VEGF(121)
T1 sequence (looked up): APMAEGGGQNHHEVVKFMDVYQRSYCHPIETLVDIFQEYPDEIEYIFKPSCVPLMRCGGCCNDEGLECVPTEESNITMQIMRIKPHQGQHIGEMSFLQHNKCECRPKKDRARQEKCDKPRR

T2: HMGB1 (UniProt P09429 1-215, limits assumed)
T2 construct: also called biotinylated HMGB1
T2 sequence (looked up): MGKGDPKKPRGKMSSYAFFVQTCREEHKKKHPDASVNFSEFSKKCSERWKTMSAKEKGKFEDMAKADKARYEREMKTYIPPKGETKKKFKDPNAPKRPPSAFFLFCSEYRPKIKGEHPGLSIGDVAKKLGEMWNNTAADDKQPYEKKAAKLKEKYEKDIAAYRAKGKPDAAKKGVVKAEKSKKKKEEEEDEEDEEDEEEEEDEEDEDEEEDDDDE

B1: R1 D4 anti-VEGF (designed binder)
chain: NVSPPRRARVTDATETTITIPWEVAGGPIISFQVDAVPANGQTPIQRTITPDATGYTITGLQPGTDYKIYLYTLNDNARSSPVVIDAST
notes: 14FN3 variant; on phage in phage ELISA, soluble His-tagged protein in Octet
B2: TNF-α binder R4F7 (designed binder)
chain: NVSPPRRARVTDATETTITISWYPYEYDDCYYYIYYFQVDAVPANGQTPIQRTIPDYESYYTITGLQPGTDYKIYLYTLNSYGFCPPSYKPVVIDAST
B3: TNF-α binder R4E9 (designed binder)
chain: NVSPPRRARVTDATETTITISWESYYYDCCYYIYYFQVDAVPANGQTPIQRTIYYPYTSYTITGLQPGTDYKIYLYTLNSYGYGYHYYKPVVIDAST
B4: TNF-α binder R4G4 (designed binder)
chain: NVSPPRRARVTDATETTITISWEPSEYDCYYSIYYFQVDAVPANGQTPIQRTIHDSYNYYTITGLQPGTDYKIYLYTLNSAGFCPPYSKPVVIDAST
B5: TNF-α binder R4A8 (designed binder)
chain: NVSPPRRARVTDATETTITISWYPSEDYCGSSIYGFQVDAVPANGQTPIQRTIHGNETSYTITGLQPGTDYKIYLYTLNSAGFCPPYSKPVVIDAST
B6: TNF-α binder A4A9 (designed binder)
chain: NVSPPRRARVTDATETTITISWYPYYDDCGYYISYFQVDAVPANGQTPIQRTIPDSYSSYTITGLQPGTDYKIYLYTLNDADDGHPYSKPVVIDAST
B7: R1 F1 anti-VEGF (designed binder)
chain: B1 chain with E23A, V24L, A53I, T54R
B8: R1G1 anti-VEGF (designed binder)
chain: NVSPPRRARVTDATETTITIRWAGSPGPVDSFQVDAVPANGQTPIQRTIQTSETGYTITGLQPGTDYKIYLYTLNDNARSSPVVIDAST
B9: P2F3 anti-HMGB1 (designed binder)
chain: NVSPPRRARVTDATETTITIRWGVPHSFQVDAVPANGQTPIQRTIKRGVRSYTITGLQPGTDYKIYLYTLNDNARSSPVVIDAST
notes: 14FN3 variant; on phage in phage ELISA, soluble 6xHis-tagged in Octet
B10: P1E8 anti-HMGB1 (designed binder)
chain: NVSPPRRARVTDATETTITISWRAAESAIARFQVDAVPANGQTPIQRTIKRTKHTYTITGLQPGTDYKIYLYTLNDNARSSPVVIDAST
notes: as for B9
B11: R2D4 anti-HMGB1 (designed binder)
chain: B10 chain with R23G, A24V, A28E, I29V, A30T, T52S, T55A
notes: as for B9
B12: R2G2 anti-HMGB1 (designed binder)
chain: B10 chain
notes: as for B9
B13: P2C6 anti-HMGB1 (designed binder)
chain: B10 chain with S21R, R23G, A24V, E26P, A28Q, I29V, A30I, T52S, K53V, T55A
notes: as for B9
B14: R2E6 anti-HMGB1 (designed binder)
chain: B10 chain with S21R, R23G, A24V, E26Q, A28Q, I29V, T52S, K53V
notes: as for B9
B15: R2F8 anti-HMGB1 (designed binder)
chain: B10 chain with S21R, R23A, A24R, A25S, E26A, A28E, T52S, K53A, H54N, T55I
notes: 14FN3 variant; also called R2F8 HMGB1 FN3
B16: R2B5 anti-HMGB1 (designed binder)
chain: B10 chain with S21R, R23T, A24V, A28K, T52S, T55S
notes: as for B9
B17: TNF-α binder R41A6 (designed binder)
chain: B4 chain with P24H, Y27D, Y31S, S32Y, H54S, D55G, S56Y, Y57E, N58T
notes: 14FN3 variant; On phage (p3 fusion) in phage ELISA; soluble with 6xHis tag (phagemid also c-myc tag; pET-20b C-terminal hexahistidine) in ELISA and Octet
B18: A6+Fc (Fc fusion)
chain: B4 chain with P24H, Y27D, Y31S, S32Y, H54S, D55G, S56Y, Y57E, N58T
notes: Expressed in E. coli BL-21(DE3); also called R41A6 Fc fusion protein; pET-20b+TNF A6+Fc #39; not shown: C-terminal hexahistidine tag of pET-20b
B19: TNF-α binder R4C5 (designed binder)
chain: NVSPPRRARVTDATETTITISWNSSYCHFYGFQVDAVPANGQTPIQRTISDYEYSYTITGLQPGTDYKIYLYTLNASCYGYHYYKPVVIDAST
notes: 14FN3 variant; on phage in phage ELISA, soluble 6xHis-tagged in ELISA; The short label C5 is tied to R4C5 by its name only
B20: TNF-α binder R42C10 (designed binder)
chain: NVSPPRRARVTDATETTITISWYHHEDDCYYHFYYFQVDAVPANGQTPIQRTILHGTYTSYTITGLQPGTDYKIYLYTLNASGFCSHSYKPVVIDAST
notes: 14FN3 variant; on phage in phage ELISA, soluble 6xHis-tagged in ELISA; The short label C10 is tied to R42C10 by its name only
B21: TNF-α binder R3A10 (designed binder)
chain: NVSPPRRARVTDATETTITISWYPYYYYCGYHYSYFQVDAVPANGQTPIQRTIYGYYTYYTITGLQPGTDYKIYLYTLNSSDYCYYSYYPVVIDAST

Molecular target: T1, VEGF
Test: Octet BLI, soluble protein

Binder | koff [s⁻¹]
B1 | 0.00017

Molecular target: T1, VEGF
Test: phage ELISA; wells with TNF, control or VEGF
Experimental: (§1) After the third and fourth rounds of selection, a total of 373 clones were analyzed for TNF-α binding using phage ELISA. Briefly, phage from individual clones was produced by co-infection with M13K07 helper phage in 1 ml cultures in 96-deep well blocks. Phage-containing culture supernatants were then added to microtiter plates coated with the target protein. Following washes with PBS-0.1% Tween-20, bound phage was detected with a mouse anti-M13 antibody horseradish peroxidase conjugate (GE Biosciences) and TMB substrate (Pierce). Positive variants were then screened for binding specificity against VEG-F and nuetravidin plate only.

Binder | binding result
B2 | no binding
B3 | no binding
B4 | no binding
B5 | no binding
B6 | no binding

Molecular target: T3, TNF-α (UniProt P01375 77-233, biotinylated)
T3 construct: also called TNF-alpha; biotintylated TNF-α soluble protein
Test: phage ELISA; wells with TNF, control or VEGF
Experimental: as §1

T3 sequence (P01375 77-233 limits assumed): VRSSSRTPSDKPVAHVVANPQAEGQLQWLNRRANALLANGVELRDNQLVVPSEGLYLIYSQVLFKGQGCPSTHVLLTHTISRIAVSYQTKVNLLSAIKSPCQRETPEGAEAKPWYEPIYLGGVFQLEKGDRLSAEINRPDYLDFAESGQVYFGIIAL

Binder | binding result
B2 | binds
B3 | binds
B4 | binds
B5 | binds
B6 | binds

Molecular target: T3, TNF-α
Test: phage ELISA (OD450); wells with VEGF, TNF alfa or 2%MPBS only

Binder | binding result
B1 | no binding
B7 | no binding
B8 | no binding

Molecular target: T2, HMGB1
Test: Octet BLI

Binder | koff [s⁻¹] | Kd [nM] | kon [M⁻¹ s⁻¹]
B9 | 0.000271 |  | 
B10 | 0.000325 | 192 | 1690
B11 | 0.000206 | 159 | 1300
B12 | 0.00049 | 266 | 1840
B13 | 0.000991 | 104 | 9540
B14 | 0.000955 | 189 | 5040
B15 | 0.000267 | 35.3 | 7580
B16 | 0.000287 | 65.8 | 4350

Molecular target: T3, TNF-α
Test: Octet BLI, biotinylated TNF-α on streptavidin tips; upper end of the range
Experimental: (§2) The target protein was biotintylated TNF-α soluble protein (R&D Systems) and is at a concentration of 0.25 ug/ml for loading onto the streptavidin sensor tips. […] The Octet was run using the manufacturers protocol for Basic Kinetic Assay.

Binder | Kd [nM]
B17 | ≤ 100

Molecular target: T3, TNF-α
Test: Octet BLI, biotinylated TNF-α on streptavidin tips
Experimental: as §2

Binder | Kd [nM] | fold improvement of Koff against monomeric A6 [fold]
B18 | 12 to 25 | 2

Molecular target: T3, TNF-α
Test: Octet BLI, biotinylated TNF-α on streptavidin tips; lower end of the range
Experimental: as §2

Binder | Kd [nM]
B17 | ≥ 20

Molecular target: T1, VEGF
Test: ELISA with purified soluble 14FN3 variant, OD450, one concentration (not given)

Binder | binding result
B19 | no binding
B20 | no binding
B17 | no binding

Molecular target: T3, TNF-α
Test: phage display selection and ELISA

Binder | binding result
B21 | binds

Molecular target: T3, TNF-α
Test: ELISA (OD450); wells with HMGB1, TNF or blank

Binder | binding result
B11 | no binding
B12 | no binding
B14 | no binding

Molecular target: T1, VEGF
Test: phage ELISA

Binder | binding result
B21 | no binding

Molecular target: T2, HMGB1
Test: competition ELISA: biotinylated HMGB1 pre-incubated with R2F8, then bound to immobilized RAGE (blocked ligand-receptor pair HMGB1/RAGE), detected with streptavidin-HRP and TMB

Binder | IC50 (read off the curve) [µg/mL]
B15 | ~8
